This is an account of results in patent US20210062165A1.

In one assay the target is FUS^N-Citrine-PixE-VioE. The assay is described as follows: cell-based or functional assay.
Assay [1] concerns the target FUS^N-FusionRed-Cry2olig-VioE. The assay is described as follows: cell-based or functional assay.

Chain of FUS^N-FusionRed-Cry2olig-VioE (Q96524 other isoform, or with tags, fused parts or gaps): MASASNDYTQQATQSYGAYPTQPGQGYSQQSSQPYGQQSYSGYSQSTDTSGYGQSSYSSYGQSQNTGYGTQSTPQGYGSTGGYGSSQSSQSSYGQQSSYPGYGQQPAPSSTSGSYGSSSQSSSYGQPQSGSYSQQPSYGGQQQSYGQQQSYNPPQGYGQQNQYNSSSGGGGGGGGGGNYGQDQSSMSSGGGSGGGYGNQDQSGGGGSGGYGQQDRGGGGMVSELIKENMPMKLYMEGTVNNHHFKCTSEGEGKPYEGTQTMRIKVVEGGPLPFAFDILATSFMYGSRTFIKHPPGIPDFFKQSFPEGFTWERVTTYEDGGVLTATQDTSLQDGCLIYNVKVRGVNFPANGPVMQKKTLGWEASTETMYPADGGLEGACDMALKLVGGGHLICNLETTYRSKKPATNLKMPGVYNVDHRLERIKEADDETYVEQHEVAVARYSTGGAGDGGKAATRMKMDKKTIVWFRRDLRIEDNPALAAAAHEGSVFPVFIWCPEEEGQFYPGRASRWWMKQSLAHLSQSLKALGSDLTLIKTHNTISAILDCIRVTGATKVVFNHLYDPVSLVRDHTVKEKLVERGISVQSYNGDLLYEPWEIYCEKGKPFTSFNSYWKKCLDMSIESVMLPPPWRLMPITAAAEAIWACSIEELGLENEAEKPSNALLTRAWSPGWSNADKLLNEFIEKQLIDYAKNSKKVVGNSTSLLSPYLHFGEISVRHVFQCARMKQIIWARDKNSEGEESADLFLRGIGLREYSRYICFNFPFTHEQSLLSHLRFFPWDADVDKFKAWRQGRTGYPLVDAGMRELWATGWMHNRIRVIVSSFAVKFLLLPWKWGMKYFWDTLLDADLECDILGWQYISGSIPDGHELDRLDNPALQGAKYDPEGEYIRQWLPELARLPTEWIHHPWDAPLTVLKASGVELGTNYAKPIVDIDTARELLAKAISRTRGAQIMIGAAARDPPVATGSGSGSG
Chain of VioC-FUS^N-Citrine-Cry2olig (Q9S3U9 1-429, tags or fused parts left off): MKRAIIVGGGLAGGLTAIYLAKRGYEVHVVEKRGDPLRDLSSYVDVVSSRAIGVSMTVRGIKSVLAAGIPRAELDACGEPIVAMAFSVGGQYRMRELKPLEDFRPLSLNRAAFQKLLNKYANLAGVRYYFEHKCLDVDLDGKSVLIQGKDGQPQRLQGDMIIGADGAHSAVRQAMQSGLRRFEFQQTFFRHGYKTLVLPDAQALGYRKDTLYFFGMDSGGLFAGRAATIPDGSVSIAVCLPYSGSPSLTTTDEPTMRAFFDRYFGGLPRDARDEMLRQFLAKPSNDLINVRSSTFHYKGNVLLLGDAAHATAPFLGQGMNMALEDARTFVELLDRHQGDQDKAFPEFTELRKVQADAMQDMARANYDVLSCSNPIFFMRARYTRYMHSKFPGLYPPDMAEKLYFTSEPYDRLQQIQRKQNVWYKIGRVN
Chain of FUS^N-Citrine-Cry2olig-VioC (P35637 1-214, tags or fused parts left off): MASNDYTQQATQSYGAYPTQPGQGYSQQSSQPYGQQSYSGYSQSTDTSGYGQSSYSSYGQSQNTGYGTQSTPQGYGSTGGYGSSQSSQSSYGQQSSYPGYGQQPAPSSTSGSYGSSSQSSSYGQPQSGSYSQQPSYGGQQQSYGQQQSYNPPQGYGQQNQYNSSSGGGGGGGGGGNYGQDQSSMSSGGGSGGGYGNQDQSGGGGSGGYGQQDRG

“FUS^N-FusionRed-PixD-VioC (from UniProt Q9S3U9 1-429)”: in the assay with FUS^N-Citrine-PixE-VioE, the change in deoxyviolacein production from light to dark (HPLC, strain YEZ257, [Zeo]max 1,200 mg/L) was 6.1 fold and the change in deoxyviolacein-to-PDV ratio from light to dark (HPLC, strain YEZ257, [Zeo]max 1,200 mg/L) amounted to 18.4 fold.

On to “VioC-FUS^N-Citrine-Cry2olig (from UniProt Q9S3U9 1-429; P35637 1-214; Q96524 1-498)”, for which the deoxyviolacein production under continuous blue light relative to dark (HPLC, strain YNS36) in assay [1] stood at 2 fold. “FUS^N-Citrine-Cry2olig-VioC (from UniProt P35637 1-214; Q96524 1-498; Q9S3U9 1-429)” returned a deoxyviolacein production under continuous blue light relative to dark (HPLC, strain YNS34) in assay [1] of 2 fold.
